This is an account of results in the supplement of paper PMC10567573.

B1: ZBTB22 (parent)
chain: HTGLKPYECGVCAKKFMWRDSFMR
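Further: lentivirally expressed fusions sorted by FACS into six bins by GFP to DsRed ratio, PSI derived from sequencing read proportions per bin multiplied by bin number.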

In the data set the parent is B1. Briefly: protein stability index of a GFP-peptide fusion (GPS, HEK-293T) (PSI 1-6); higher = more stable. As to conditions: c terminus: a fixed tail appended.
Take HTGLKPYECGVCAKKFMKRDSFMR: the protein stability index is 1.75. The value for HTGLKPYECGVCAKKFMERDSFMR was 2.75; that for HTGLKPYECGVCAKKFMSRDSFMR was 1.52; that for HTGLKPYECGVCAKKFMLRDSFMR was 3.88. The value for HTGLKPYECGVCAKKFMVRDSFMR was 2.43; that for HTGLKPYECGVCAKKFMPRDSFMR was 2.88; that for HTGLKPYECGVCAKKFMMRDSFMR was 1.78. The value for HTGLKPYECGVCAKKFMIRDSFMR was 1.57. As to HTGLKPYECGVCAKKFMHRDSFMR, the protein stability index amounted to 2.81. The value for HTGLKPYECGVCAKKFMARDSFMR was 1.06; that for HTGLKPYECGGCAKKFMWRDSFMR was 1.25.

With HTGLKPYECGRCAKKFMWRDSFMR, the protein stability index is 1.75. As for HTGLKPYECGTCAKKFMWRDSFMR, the protein stability index amounted to 1.83. HTGLKPYECGLCAKKFMWRDSFMR: the protein stability index came out at 1.85. Regarding HTGLKPYECGNCAKKFMWRDSFMR, the protein stability index was 1.37. The value for HTGLKPYECGHCAKKFMWRDSFMR was 2.37; that for HTGLKPYECGICAKKFMWRDSFMR was 3.5; that for HTGLKPYECGQCAKKFMWRDSFMR was 1.8. To HTGLKPYECGPCAKKFMWRDSFMR belongs 3.87. For the variant HTGLKPYECGDCAKKFMWRDSFMR, the protein stability index was 3.26. HTGLKPYECGFCAKKFMWRDSFMR: the protein stability index was determined as 2.4. To HTGLKPYECGYCAKKFMWRDSFMR belongs 2.59; to HTGLKPYECGECAKKFMWRDSFMR, 2.09; to HTGLKPYECGKCAKKFMWRDSFMR, 2.98.

As for HTGLKPYECGVCAKKFMWQDSFMR, the protein stability index turned out to be 2.03.

With HTGLKPYECGVCAKKFMWMDSFMR, the protein stability index was found to be 2.01. Take HTGLKPYECGVCAKKFMWPDSFMR: the protein stability index was found to be 4.1. Regarding HTGLKPYECGVCAKKFMWFDSFMR, the protein stability index was 1.55. The value for HTGLKPYECGVCAKKFMWKDSFMR was 2.88; that for HTGLKPYECGVCAKKFMWIDSFMR was 1.71; that for HTGLKPYECGVCAKKFMWHDSFMR was 2.12. On to HTGLKPYECGVCAKKFMWTDSFMR, for which the protein stability index is 2.13. On to HTGLKPYECGVCAKKFMWNDSFMR, for which the protein stability index turned out to be 2.29. To HTGLKPYECGVCAKKFMWDDSFMR belongs 1.88; to HTGLKPYECGVCAKKFMWEDSFMR, 1.58; to HTGLKPYECGVCAKKFMWCDSFMR, 1.59.

In the case of HTGLKPYECGVCAKKFMWADSFMR, the protein stability index was 2.81.

In the case of HTGLKPYECGVCAKKFMWLDSFMR, the protein stability index was 2.82. Turning to HTGLKPYECGVCAKKFMWSDSFMR, the protein stability index is 2.12. The value for HTGLKPYECGVCAKKQMWRDSFMR was 2.16. The value for HTGLKPYECGVCAKKDMWRDSFMR was 2.45; that for HTGLKPYECGVCAKKHMWRDSFMR was 1.6. As to HTGLKPYECGVCAKKRMWRDSFMR, the protein stability index is 2.1. In the case of HTGLKPYECGVCAKKVMWRDSFMR, the protein stability index was 1.95. Take HTGLKPYECGVCAKKKMWRDSFMR: the protein stability index was 1.32. As to HTGLKPYECGVCAKKEMWRDSFMR, the protein stability index is 1.31. To HTGLKPYECGVCAKKPMWRDSFMR belongs 3; to HTGLKPYECGVCAKKCMWRDSFMR, 2.57. As for HTGLKPYECGVCAKKIMWRDSFMR, the protein stability index worked out at 1.6. Take HTGLKPYECGVCAKKNMWRDSFMR: the protein stability index is 1.39. For the variant HTGLKPYECGVCAKKMMWRDSFMR, the protein stability index is 2.46. To HTGLKPYECGVCAKKYMWRDSFMR belongs 3.36. To HTGLKPYECGVCAKKSMWRDSFMR belongs 3.33; to HTGLKPYECGVCAKKAMWRDSFMR, 1.1; to HTGLKPYECGVCAKKFDWRDSFMR, 1.84. With HTGLKPYECGVCAKKFCWRDSFMR, the protein stability index came to 2.27. To HTGLKPYECGVCAKKFQWRDSFMR belongs 1.64; to HTGLKPYECGVCAKKFTWRDSFMR, 3.13; to HTGLKPYECGVCAKKFLWRDSFMR, 2.18. To HTGLKPYECGVCAKKFKWRDSFMR belongs 1.27; to HTGLKPYECGVCAKKFPWRDSFMR, 2.35; to HTGLKPYECGVCAKKFFWRDSFMR, 3.05. Regarding HTGLKPYECGVCAKKFWWRDSFMR, the protein stability index was found to be 2.45.

On to HTGLKPYECGVCAKKFIWRDSFMR, for which the protein stability index amounted to 2.8.

In the case of HTGLKPYECGVCAKKFYWRDSFMR, the protein stability index stood at 1.53. To HTGLKPYECGVCAKKFSWRDSFMR belongs 1.9. To HTGLKPYECGVCAKKFRWRDSFMR belongs 1.39; to HTGLKPYECGVCAKKFAWRDSFMR, 2.39; to HTGLKPYECGVCEKKFMWRDSFMR, 1.56. The value for HTGLKPYECGVCFKKFMWRDSFMR was 3.02; that for HTGLKPYECGVCWKKFMWRDSFMR was 3.78.

On to HTGLKPYECGVCKKKFMWRDSFMR, for which the protein stability index was determined as 1.22. Regarding HTGLKPYECGVCQKKFMWRDSFMR, the protein stability index came out at 1.55. Turning to HTGLKPYECGVCLKKFMWRDSFMR, the protein stability index turned out to be 2.64. To HTGLKPYECGVCHKKFMWRDSFMR belongs 2.56; to HTGLKPYECGVCIKKFMWRDSFMR, 2.5; to HTGLKPYECGVCDKKFMWRDSFMR, 1. The value for HTGLKPYECGVCMKKFMWRDSFMR was 3.7. To HTGLKPYECGVCGKKFMWRDSFMR belongs 1.54. Regarding HTGLKTYECGVCAKKFMWRDSFMR, the protein stability index amounted to 2.99. In the case of HTGLKYYECGVCAKKFMWRDSFMR, the protein stability index was 2.11. To HTGLKVYECGVCAKKFMWRDSFMR belongs 1.1.

Regarding HTGLKPYECGVCADKFMWRDSFMR, the protein stability index was determined as 1.91. The value for HTGLKPYECGVCATKFMWRDSFMR was 2.19.

Take HTGLKPYECGVCAQKFMWRDSFMR: the protein stability index was 2.53. To HTGLKPYECGVCACKFMWRDSFMR belongs 2.55; to HTGLKPYECGVCAAKFMWRDSFMR, 1.26. With HTGLKPYECGVCAEKFMWRDSFMR, the protein stability index was 1.9. As to HTGLKPYECGVCALKFMWRDSFMR, the protein stability index turned out to be 1.82. The value for HTGLKPYECGVCAIKFMWRDSFMR was 1.66; that for HTGLKPYECGVCAWKFMWRDSFMR was 2.78; that for HTGLKPYECGVCAYKFMWRDSFMR was 3.07. The value for HTGLKPYECGVCAFKFMWRDSFMR was 1.99.

As for HTGLKPYECGVCAPKFMWRDSFMR, the protein stability index was 1.21.
